Experimental data from the Immune Epitope Database (IEDB).
Values belong to the sequence of their own block, whether it stands above or below them.

Assays:
HLA-A*69:01 [1] = experiment: IEDB peptide-MHC binding, purified MHC/competitive/fluorescence; filed as Kd, often an IC50 or EC50 that approximates it; ≥ and ≤ were set here for values at or beyond the usual limits of such assays
HLA-B*15:17 = experiment: as above; settings: source organism: Vibrio parahaemolyticus AN-5034
HLA-A*31:01 [2] = experiment: as above; settings: source organism: Vibrio parahaemolyticus AN-5034
HLA-B*48:01 = experiment: IEDB peptide-MHC binding, purified MHC/direct/fluorescence; filed as Kd, often an IC50 or EC50 that approximates it; ≥ and ≤ were set here for values at or beyond the usual limits of such assays; settings: source organism: Vibrio parahaemolyticus
HLA-A*02:12 [3] = experiment: as above; settings: source organism: Vibrio parahaemolyticus RIMD 2210633
HLA-A*29:02 = experiment: as above; settings: source organism: Vibrio parahaemolyticus RIMD 2210633
HLA-A*26:01 [4] = experiment: as above
HLA-A*02:19 [5] = experiment: as above; settings: source organism: Vibrio parahaemolyticus RIMD 2210633
HLA-B*27:05 = experiment: as above
HLA-B*15:01 [6] = experiment: as above
HLA-A*02:50 [7] = experiment: as above; settings: source organism: Vibrio parahaemolyticus RIMD 2210633
HLA-B*07:02 = experiment: as above
HLA-B*58:01 = experiment: as above
HLA-A*26:03 = experiment: as above; settings: source organism: Vibrio parahaemolyticus RIMD 2210633
HLA-B*39:01 = experiment: as above; settings: source organism: Vibrio parahaemolyticus RIMD 2210633
HLA-B*51:01 = experiment: as above; settings: source organism: Vibrio parahaemolyticus RIMD 2210633
HLA-A*23:01 [8] = experiment: as above; settings: source organism: Vibrio parahaemolyticus RIMD 2210633
HLA-A*24:03 [9] = experiment: as above
HLA-B*57:01 [10] = experiment: as above; settings: source organism: Vibrio parahaemolyticus
HLA-A*11:01 = experiment: as above
HLA-A*30:01 = experiment: as above; settings: source organism: Vibrio parahaemolyticus RIMD 2210633
HLA-B*40:01 = experiment: as above
HLA-A*02:11 [11] = experiment: as above; settings: source organism: Vibrio parahaemolyticus RIMD 2210633
HLA-B*44:02 = experiment: as above; settings: source organism: Vibrio parahaemolyticus RIMD 2210633
HLA-B*08:01 = experiment: as above
HLA-B*46:01 [12] = experiment: as above; settings: source organism: Vibrio parahaemolyticus
HLA-A*03:01 [13] = experiment: as above
HLA-A*01:01 = experiment: as above
HLA-A*02:01 [14] = experiment: as above
HLA-A*02:16 = experiment: IEDB peptide-MHC binding, purified MHC/competitive/fluorescence; filed as Kd, often an IC50 or EC50 that approximates it; ≥ and ≤ were set here for values at or beyond the usual limits of such assays
HLA-A*26:01 [15] = experiment: as above; settings: source organism: Vibrio vulnificus CMCP6
HLA-B*18:01 = experiment: as above; settings: source organism: Vibrio vulnificus CMCP6
HLA-B*15:01 [16] = experiment: as above; settings: source organism: Vibrio vulnificus CMCP6
HLA-A*23:01 [17] = experiment: as above; settings: source organism: Vibrio vulnificus CMCP6
HLA-A*24:03 [18] = experiment: as above; settings: source organism: Vibrio vulnificus CMCP6
HLA-B*57:01 [19] = experiment: as above; settings: source organism: Vibrio vulnificus CMCP6
HLA-B*27:03 = experiment: as above; settings: source organism: Vibrio vulnificus CMCP6
HLA-B*46:01 [20] = experiment: as above; settings: source organism: Vibrio vulnificus CMCP6
HLA-A*03:01 [21] = experiment: as above; settings: source organism: Vibrio vulnificus CMCP6
HLA-A*02:01 [22] = experiment: as above
HLA-A*02:12 [23] = experiment: as above
HLA-A*02:19 [24] = experiment: as above; settings: source organism: Human immunodeficiency virus 1
HLA-A*02:03 = experiment: as above
HLA-A*02:06 = experiment: as above
HLA-A*02:11 [25] = experiment: as above
HLA-A*02:50 [26] = experiment: as above; settings: source organism: Pasteurella multocida subsp. multocida str. Pm70
HLA-A*69:01 [27] = experiment: IEDB peptide-MHC binding, purified MHC/direct/fluorescence; filed as Kd, often an IC50 or EC50 that approximates it; ≥ and ≤ were set here for values at or beyond the usual limits of such assays; settings: source organism: Pasteurella multocida
HLA-A*31:01 [28] = experiment: as above; settings: source organism: Pasteurella multocida
[29] = source organism: Vibrio parahaemolyticus RIMD 2210633
[30] = source organism: Vibrio parahaemolyticus
[31] = source organism: Vibrio vulnificus CMCP6
[32] = source organism: Human immunodeficiency virus 1
[33] = source organism: Pasteurella multocida subsp. multocida str. Pm70
[34] = source organism: Pasteurella multocida

Sequence: DTWHGFKNM
Kd (HLA-A*69:01 [1]; source organism: Vibrio parahaemolyticus AN-5034): 22.3 nM
Kd (HLA-B*15:17): ≥ 20 µM
Kd (HLA-A*31:01 [2]): ≥ 20 µM
Kd (HLA-B*48:01): ≥ 20 µM
Kd (HLA-A*02:12 [3]): ≥ 20 µM
Kd (HLA-A*29:02): ≥ 20 µM
Kd (HLA-A*26:01 [4]; [29]): 171 nM
Kd (HLA-A*02:19 [5]): ≥ 20 µM
Kd (HLA-B*27:05; [30]): ≥ 20 µM
Kd (HLA-B*15:01 [6]; [30]): ≥ 20 µM
Kd (HLA-A*02:50 [7]): ≥ 20 µM
Kd (HLA-B*07:02; [30]): ≥ 20 µM
Kd (HLA-B*58:01; [30]): ≥ 20 µM
Kd (HLA-A*26:03): 11 nM
Kd (HLA-B*39:01): ≥ 20 µM
Kd (HLA-B*51:01): ≥ 20 µM
Kd (HLA-A*23:01 [8]): ≥ 20 µM
Kd (HLA-A*24:03 [9]; [29]): ≥ 20 µM
Kd (HLA-B*57:01 [10]): ≥ 20 µM
Kd (HLA-A*11:01; [30]): ≥ 20 µM
Kd (HLA-A*30:01): ≥ 20 µM
Kd (HLA-B*40:01; [30]): ≥ 20 µM
Kd (HLA-A*02:11 [11]): ≥ 20 µM
Kd (HLA-B*44:02): ≥ 20 µM
Kd (HLA-B*08:01; [29]): ≥ 20 µM
Kd (HLA-B*46:01 [12]): ≥ 20 µM
Kd (HLA-A*03:01 [13]; [30]): ≥ 20 µM
Kd (HLA-A*01:01; [30]): ≥ 20 µM
Kd (HLA-A*02:01 [14]; [30]): ≥ 20000 nM

Sequence: FGAQMGWPV
Kd (HLA-A*02:16; [31]): 6.2 nM
Kd (HLA-A*26:01 [15]): ≥ 20 µM
Kd (HLA-B*18:01): ≥ 20 µM
Kd (HLA-B*15:01 [16]): ≥ 20 µM
Kd (HLA-A*23:01 [17]): ≥ 20 µM
Kd (HLA-A*24:03 [18]): ≥ 20 µM
Kd (HLA-B*57:01 [19]): ≥ 20 µM
Kd (HLA-B*27:03): ≥ 20 µM
Kd (HLA-B*46:01 [20]): ≥ 20 µM
Kd (HLA-A*03:01 [21]): ≥ 20 µM
Kd (HLA-A*02:01 [22]; [31]): 4.8 nM

Sequence: FLGKIWPS
Kd (HLA-A*02:12 [23]; [32]): ≤ 0.1 nM
Kd (HLA-A*02:16; [32]): ≤ 0.1 nM
Kd (HLA-A*02:19 [24]): 0.4 nM
Kd (HLA-A*02:03; [32]): ≤ 0.1 nM
Kd (HLA-A*69:01 [1]; [32]): 2760 nM
Kd (HLA-A*02:06; [32]): ≤ 0.1 nM
Kd (HLA-A*02:11 [25]; [32]): ≤ 0.1 nM
Kd (HLA-A*02:01 [22]; [32]): 3.25 nM

Sequence: HLADQLIHQ
Kd (HLA-A*02:19 [24]): ≥ 20000 nM
Kd (HLA-A*02:03; [32]): 311 nM
Kd (HLA-A*69:01 [1]; [32]): ≥ 20000 nM
Kd (HLA-A*02:11 [25]; [32]): 101 nM
Kd (HLA-A*02:01 [22]; [32]): 6590 nM

Kd (HLA-A*02:12 [23]; [33]): ≤ 0.1 nM
Kd (HLA-A*02:50 [26]): ≤ 0.1 nM
Kd (HLA-A*02:03; [33]): ≤ 0.1 nM
Kd (HLA-A*02:06; [33]): ≤ 0.1 nM
Kd (HLA-A*02:11 [25]; [33]): ≤ 0.1 nM
Kd (HLA-A*26:01 [4]; [34]): 13.1 nM
Kd (HLA-B*27:05; [34]): ≥ 20 µM
Kd (HLA-B*15:01 [6]; [34]): 9.23 µM
Kd (HLA-B*07:02; [34]): ≥ 20 µM
Kd (HLA-B*58:01; [34]): ≥ 20 µM
Kd (HLA-A*24:03 [9]; [34]): ≥ 20 µM
Kd (HLA-A*11:01; [34]): ≥ 20 µM
Kd (HLA-A*69:01 [27]): 162 nM
Kd (HLA-B*40:01; [34]): ≥ 20 µM
Kd (HLA-B*08:01; [34]): ≥ 20 µM
Kd (HLA-A*31:01 [28]): 1460 nM
Kd (HLA-A*03:01 [13]; [34]): ≥ 20 µM
Kd (HLA-A*01:01; [34]): ≥ 20 µM
Kd (HLA-A*02:01 [14]; [34]): 51 nM
Sequence: LLKDLMPFV
